Like-named read-outs stand apart in the source and are kept apart here.
Tests used:
[1] = target: T1, SARS-CoV-2 Spike (S) protein, strain BetaCoV/Wuhan-Hu-1/2019, full length (SARS-CoV-2 Wuhan-Hu-1, UniProt P0DTC2 14-1273); experiment: flow cytometry, ExpiCHO cells expressing SARS-CoV-2 S; % positive cells
[2] = target: SARS-CoV-1 Spike (S) protein, strain SARS, on ExpiCHO cells (SARS-CoV (SARS-CoV-1), strain SARS, UniProt P59594 14-1255); experiment: flow cytometry, ExpiCHO cells expressing SARS-CoV-1 S; % positive cells
[3] = target: T2, SARS-CoV-1 RBD (Sino Biological) (SARS-CoV-1, UniProt P59594 306-527); experiment: BLI (Octet), antibody on protein A sensors, RBD in solution, global fit
[4] = target: SARS-CoV-2 RBD (produced in house in Expi-CHO cells; residues 331-550 of spike) (SARS-CoV-2 BetaCoV/Wuhan-Hu-1/2019, UniProt P0DTC2 331-550); experiment: as above
[5] = target: T1, SARS-CoV-2 Spike (S) protein, strain …; experiment: cell-based or functional assay
[6] = target: T1, SARS-CoV-2 Spike (S) protein, strain …
[7] = target: T3, His-tagged RBD of SARS-CoV-1 (SARS-CoV-1, UniProt P59594 306-527)
[8] = target: T4, His-tagged RBD of SARS-CoV-2 (SARS-CoV-2 BetaCoV/Wuhan-Hu-1/2019, UniProt P0DTC2 331-550)
[9] = target: T1, SARS-CoV-2 Spike (S) protein, strain …; experiment: cell-based or functional assay; remark: listed apart in the source
[10] = target: T3, His-tagged RBD of SARS-CoV-1; remark: listed apart in the source
[11] = target: T4, His-tagged RBD of SARS-CoV-2; remark: listed apart in the source
[12] = target: T2, SARS-CoV-1 RBD (Sino Biological); experiment: ELISA, antigen coated on the plate, OD 405 nm
[13] = target: T2, SARS-CoV-1 RBD (Sino Biological); experiment: ELISA, antigen coated on the plate, OD 405 nm; remark: listed apart in the source

B1: S304 rIgG1 (antibody, V domains shown)
VH: EVQLVESGGGLVQPGGSLRLSCAASGFTFSSYDMHWVRQTTGKGLEWVSTIGTAGDTYYPDSVKGRFTISREDAKNSLYLQMNSLRAGDTAVYYCARGDSSGYYYYFDYWGQGTLLTVSS
VL: DIQMTQSPSSLSAAVGDRVTITCRASQSIGSYLNWYQQKPGKAPKLLIYAASSLQSGVPSRFSGSGSGTDFTLTISSLQPEDFAIYYCQQSYVSPTYTFGPGTKVDIK
EC50 (read off the curve) [1]: ~100 ng/mL | EC50 (read off the curve) [2]: ~10 ng/mL | Kd [3]: 0.869 nM | Kd [4]: 4.58 nM | IC50, neutralization of SARS-CoV-2pp on DBT-ACE2 cells [5]: ~16.9 µg/mL | EC50 [6]: 0.142 µg/mL | Kd [7]: 0.869 nM | Kd [8]: 4.58 nM

B2: S315 recombinant IgG1 (antibody, V domains shown)
VH: EVQLVESGGGLVQPGGSLRLSCAASGFTFSNYWMTWVRQAPGKGLEWVANIKQDGSEKYYVDSVKGRFTISRDNAKNSLYLQMNSLRAEDTAVYYCARDLWWNDQAHYYGMDVWGQGTTVTVSS
VL: SYELTQPPSVSVSPGQTARITCSGDAFPNQYAYWYQQKPGQAPVMLIYKDSERPSGIPERFFGSSSGTTVTLTIRGVQAEDEADYYCQSADSSGTVFGGGTKLTVL
EC50 (read off the curve) [1]: ~300 ng/mL | EC50 (read off the curve) [2]: ~7 ng/mL | IC50, neutralization of SARS-CoV-2pp on DBT-ACE2 cells [9]: 25.1 µg/mL | EC50 [6]: 0.343 µg/mL | Kd [10]: < 1 pM | Kd [11]: 0.811 nM

B3: S310-rIgG1-LS (antibody, V domains shown)
VH: QVQLVQSGAELKKPGSSVKVSCKASGGTFNSYSFNWVRQAPGQGLEWLGGIIPVLGTSNYAQKFQGRVAVTADEFTTTAYMELSSLRSEDTAVYYCATRTYDSSGYRPYYYGLDVWGQGTPVTVSS
VL: QSALTQPASVSGSPGQSITISCTGTSSDVGSYNLVSWYQQRPGKAPELMIYEVTKRPSGLSNRFSGSKSGNTASLTISGLQAEDEADYYCCSYAGSDTVIFGGGTKVTVL
binding result [12]: no binding (tested: 5 µg/ml)

B4: S306-rIgG1-LS (antibody, V domains shown)
VH: QVQLVQSGAEVKKPGASVKVSCKASTYTFTSFGISWVRQAPGQGLEWMGWITTYSGDTNYAQKFQGRVTMTTDTSTNTAYMELRSLRSDDTAVYYCASDYFDSSGYYHSFDYWGQGTLVTVSS
VL: EIVLTQSPDTLSLSPGERATLSCRASQSVSSYLAWYQQRPGQAPRLLIYDASKRATGIPARFSGSGSGTDFTLTISSLEPEDFAVYYCQQRSNWPPGCSFGQGTKVEIK
binding result [13]: no binding (tested: 5 µg/ml)

Source: US20230331821A1 (VIR BIOTECHNOLOGY, published 2023)
